Assay results taken from US6858210B1, “Therapeutic and diagnostic domain 1 β2GPI polypeptides and methods of using same” (La Jolla Pharmaceutical Co., priority 1998, dated 2005).
Read-outs that look alike come from different tables or passages of the source.

Legend:
[1] = system: affinity purified β2GPI-dependent antiphospholipid antibody; assay: Competitive inhibition ELISA: recombinant β2GPI proteins compete for antibody binding to coated full length recombinant β2GPI; set-up: species or system human; conditions: for IC50: read-out: 50% (concentration to give 50% inhibition)
Method: Microtiter plates (MaxiSorp™, Nalge Nunc International, Denmark) were coated with 50 μl of full length recombinant β2GPI at 10 μg/ml in 0.1 M bicarbonate, pH 9.5, incubated overnight at 4° C., washed three times with 0.15 M PBS, pH 7.2, and blocked for one hour at room temperature with 75 μl of 2% Non-fat Dried Milk (Carnation, 2% NFDM). Test inhibitors were diluted in 2% NFDM and 25 μl of each dilution was added to coated wells. Affinity purified β2GPI-dependent antiphospholipid antibody was diluted in 2% NFDM and 25 μl, of a constant concentration, was added to the wells, including a group of wells that had no inhibitor, which acted as the positive controls. The contents of the wells were mixed and the plates were incubated at 37° C. for one hour. The plates were washed three times with PBS, 50 μl of alkaline phosphatase conjugated anti-human IgG, gamma chain specific, (Zymed #62-8422) diluted appropriately in 2% NFDM was added and incubated at 37° C. for one hour. The plates were washed three times with PBS, 50 μl of alkaline phosphatase PPMP chromogenic substrate solution was added and incubated for 30 minutes, at room temperature. The Optical Density, at 550 nm, was determined by reading the plates in a microplate autoreader (Bio-Teck Instruments, model EL3 11). The percent inhibition was determined by dividing the OD550 obtained in the presence of inhibitor by the mean OD550 obtained from the wells without inhibitor and then multiplying by 100 (more particularly, [mean A550 obtained from control wells without inhibitor less A550 of background] minus [A550 obtained in presence of inhibitor less A550 of background] divided by [mean A550 obtained from control wells without inhibitor less A550 of background] times 100).
Seven to nine different recombinant β2GPI mutant proteins were used to determine the antigenic specificity of affinity purified β2GPI-dependent antiphospholipid antibody preparations from 13 different patients. Each mutant recombinant β2GPI protein was tested, in a dose dependent fashion, for its ability to inhibit affinity purified β2GPI-dependent antiphospholipid antibody from binding to full length recombinant β2GPI. The following values were also observed for domain 1 only recombinant protein (1 - - - -; see Table 2 for designations): […]

[2] = system: affinity purified β2GPI-dependent antiphospholipid antibody; assay: Direct binding ELISA, nickel chelate-coated wells charged with recombinant β2GPI proteins (no cardiolipin); set-up: species or system human; conditions: O.D. at 550 nm
Method: (§1) Nickel Chelate-coated microwell plates (NCP 010 00 Xenopore Corp. 374 Midland Ave. Saddle Brook, N.J. USA) were coated with 50 μl of serial dilutions of the various recombinant β2GPI, in PBS, at room temperature for 2 hours. The plates were washed three times with PBS and blocked with 75 μl of a 1% gelatin (Sigma #G-2500) in PBS for one hour room temperature. […] The plates were washed three times with PBS, 50 μl of alkaline phosphatase conjugated anti-immunoglobulin (anti-human IgG, gamma chain specific, Zymed #62-8422) or anti-rabbit IgG (Zymed #62-6122) diluted appropriately in 1% gelatin was added and incubated at 37° C. for one hour. The plates were washed three times with PBS, 50 μl of alkaline phosphatase PPMP chromogenic substrate solution was added and incubated for 30 minutes at room temperature. The optical density, at 550 nm, was determined by reading the plates in a microplate autoreader (Bio-Teck Instruments, model EL311).
(§2) Seven to nine different recombinant β2GPI mutant proteins were examined to determine if they could support the direct binding of affinity purified β2GPI-dependent antiphospholipid antibody preparations in the absence of anionic phospholipid. All recombinant mutant β2GPI were assayed with affinity purified β2GPI-dependent antiphospholipid antibody preparations from 11 different patients. Each mutant recombinant β2GPI protein was tested, in a dose dependent fashion and GST-6his was included as a negative control. The recombinant mutant β2GPI proteins were bound to nickel coated microtiter plates via their 6-his tail. All recombinant mutant β2GPI proteins tested bound rabbit anti-β2GPI showing that they were assessable by antibody (FIG. 5).

[3] = system: rabbit anti-β2GPI; assay: Direct binding ELISA, nickel chelate-coated wells, rabbit antibody; conditions: O.D. at 550 nm
Method: as §1, §2

Max (maximum inhibition observed at concentrations tested) ([1]; Ab 6203) [%] | IC50 ([1]; Ab 6203) [µM] | Max (maximum inhibition observed at concentrations tested) ([1]; Ab 6501) [%] | IC50 ([1]; Ab 6501) [µM] | Max (maximum inhibition observed at concentrations tested) ([1]; Ab 6509) [%] | IC50 ([1]; Ab 6509) [µM] | Max (maximum inhibition observed at concentrations tested) ([1]; Ab 6626) [%] | IC50 ([1]; Ab 6626) [µM] | Max (maximum inhibition observed at concentrations tested) ([1]; Ab 6632) [%] | IC50 ([1]; Ab 6632) [µM] | Max (maximum inhibition observed at concentrations tested) ([1]; Ab 6641) [%] | IC50 ([1]; Ab 6641) [µM] | Max (maximum inhibition observed at concentrations tested) ([1]; Ab 6644) [%] | IC50 ([1]; Ab 6644) [µM] | Max (maximum inhibition observed at concentrations tested) ([1]; Ab 6652) [%] | IC50 ([1]; Ab 6652) [µM] | Max (maximum inhibition observed at concentrations tested) ([1]; Ab 6701) [%] | IC50 ([1]; Ab 6701) [µM] | Max (maximum inhibition observed at concentrations tested) ([1]; Ab 7008) [%] | IC50 ([1]; Ab 7008) [µM] | Molecule | further results
75 | 1 | 85 | 0.8 | 90 | 0.3 | 90 | 0.8 | 90 | 0.2 | 60 | 4 | 90 | 0.7 | 95 | 0.3 | 95 | 0.3 | 80 | 0.4 | 123--: recombinant β2GPI deletion mutant with domains 1, 2, 3 (protein) GRTCPKPDDLPFSTVVPLKTFYEPGEEITYSCKPGYVSRGGMRKFICPLTGLWPINTLKCTPRVCPFAGILENGAVRYTTFEYPNTISFSCNTGFYLNGADSAKCTEEGKWSPELPVCAPIICPPPSIPTFATLRVYKPSAGNNSLYRDTAVFECLPQHAMFGNDTITCTTHGNWTKLPECGHHHHHH | Max (maximum inhibition observed at concentrations tested) ([1]; Ab 7015): 90%; IC50 ([1]; Ab 7015): 0.7 µM; Max (maximum inhibition observed at concentrations tested) ([1]; Ab 7101): 70%; IC50 ([1]; Ab 7101): 3 µM; Max (maximum inhibition observed at concentrations tested) ([1]; Ab 7104): 98%; IC50 ([1]; Ab 7104): 1 µM; Maximum O.D. ([2]; Ab 6203): 0.938; Maximum O.D. ([2]; Ab 6501): 0.909; Maximum O.D. ([2]; Ab 6626): 1.250; Maximum O.D. ([2]; Ab 6632): 0.121; Maximum O.D. ([2]; Ab 6641): 0.530; Maximum O.D. ([2]; Ab 6644): 1.020; Maximum O.D. ([2]; Ab 6652): 0.320; Maximum O.D. ([2]; Ab 6701): 0.841; Maximum O.D. ([2]; Ab 7008): 0.360; Maximum O.D. ([2]; Ab 7015): 1.160; Maximum O.D. ([2]; Ab 7101): 0.951; Maximum O.D. [3]: 1.971
30 | > 8 | 30 | > 8 | 80 | 3 | 40 | > 8 | 60 | 2 | 60 | 2 | 50 | 8 | 100 | 0.5 | 30 | > 8 | 50 | > 8 | 1234-: recombinant β2GPI deletion mutant with domains 1, 2, 3, 4 (protein) GRTCPKPDDLPFSTVVPLKTFYEPGEEITYSCKPGYVSRGGMRKFICPLTGLWPINTLKCTPRVCPFAGILENGAVRYTTFEYPNTISFSCNTGFYLNGADSAKCTEEGKWSPELPVCAPIICPPPSIPTFATLRVYKPSAGNNSLYRDTAVFECLPQHAMFGNDTITCTTHGNWTKLPECREVKCPFPSRPDNGFVNYPAKPTLYYKDKATFGCHDGYSLDGPEEIECTKLGNWSAMPSCGHHHHHH | Max (maximum inhibition observed at concentrations tested) ([1]; Ab 7015): 50%; IC50 ([1]; Ab 7015): 8 µM; Max (maximum inhibition observed at concentrations tested) ([1]; Ab 7101): 20%; IC50 ([1]; Ab 7101): > 8 µM; Max (maximum inhibition observed at concentrations tested) ([1]; Ab 7104): 90%; IC50 ([1]; Ab 7104): 0.7 µM; Maximum O.D. ([2]; Ab 6203): 0.668; Maximum O.D. ([2]; Ab 6501): 0.628; Maximum O.D. ([2]; Ab 6626): 0.563; Maximum O.D. ([2]; Ab 6632): 0.003; Maximum O.D. ([2]; Ab 6641): 0.145; Maximum O.D. ([2]; Ab 6644): 0.768; Maximum O.D. ([2]; Ab 6652): 0.135; Maximum O.D. ([2]; Ab 6701): 0.715; Maximum O.D. ([2]; Ab 7008): 0.149; Maximum O.D. ([2]; Ab 7015): 0.454; Maximum O.D. ([2]; Ab 7101): 0.843; Maximum O.D. [3]: 1.708
10 | > 50 | 15 | > 50 | 20 | > 15 | 20 | > 50 | 20 | > 50 | 10 | > 15 | 10 | > 50 | 30 | > 15 | 20 | > 15 | 20 | > 50 | --345: recombinant β2GPI deletion mutant with domains 3, 4, 5 (protein) GRIICPPPSIPTFATLRVYKPSAGNNSLYRDTAVFECLPQHAMFGNDTITCTTHGNWTKLPECREVKCPFPSRPDNGFVNYPAKPTLYYKDKATFGCHDGYSLDGPEEIECTKLGNWSAMPSCKASCKLPVKKATVVYQGERVKIQEKFKNGMLHGDKVSFFCKNKEKKCSYTEDAQCIDGTIEVPKCFKEHSSLAFWKTDASDVKPCGHHHHHH | Max (maximum inhibition observed at concentrations tested) ([1]; Ab 7015): 10%; IC50 ([1]; Ab 7015): > 50 µM; Max (maximum inhibition observed at concentrations tested) ([1]; Ab 7101): 5%; IC50 ([1]; Ab 7101): > 50 µM; Max (maximum inhibition observed at concentrations tested) ([1]; Ab 7104): 20%; IC50 ([1]; Ab 7104): > 50 µM; Maximum O.D. ([2]; Ab 6203): 0.072; Maximum O.D. ([2]; Ab 6501): 0.030; Maximum O.D. ([2]; Ab 6626): 0.022; Maximum O.D. ([2]; Ab 6632): 0.004; Maximum O.D. ([2]; Ab 6641): 0.019; Maximum O.D. ([2]; Ab 6644): 0.048; Maximum O.D. ([2]; Ab 6652): 0.016; Maximum O.D. ([2]; Ab 6701): 0.002; Maximum O.D. ([2]; Ab 7008): 0.018; Maximum O.D. ([2]; Ab 7015): 0.042; Maximum O.D. ([2]; Ab 7101): 0.042; Maximum O.D. [3]: 1.993
